Assay [1] has as its target T1, human TIM3, full length, on cells (human, UniProt Q8TDQ0 22-301). Description: cell-based or functional assay.
In assay [2] the target is monomeric cyno Tim3-ECD (cynomolgus). Description: ELISA on cynomolgus Tim3.
Assay [3] deals with T2, Tim3-ECD-His-Biotin (human, UniProt Q8TDQ0 22-202, biotinylated with BirA Ligase).
T2 construct: Coated on streptavidin plates; also called human Tim3 (ELISA); Biochem Human
Description: ELISA on human Tim3. On the technique in general: ELISA stands for enzyme-linked immunosorbent assay.

Assay [4] has as its target monomeric cyno Tim3-ECD (cynomolgus). Description: SPR, Ab captured on anti-mouse IgG, 25 C.
Assay [5] has as its target cynomolgus TIM-3 on isolated cyno CD14+ monocytes (cynomolgus monkey). Description: FACS, cyno CD14+ monocytes, cyno1 (16719M).
Assay [6] shares this target. Description: FACS, cyno CD14+ monocytes, cyno2 (17435M). Background: In flow cytometry, cells or beads pass a laser one at a time.
The target is the same in assay [7]. Description: FACS, cyno CD14+ monocytes, cyno3 (30085F).
The target of assay [8] is T1, human TIM3, full length, on cells. Description: cell ELISA, CHO-K1 with full-length human Tim3.
The target of assay [9] is T3, monomeric human Tim3-ECD (human, UniProt Q8TDQ0 22-202).
T3 construct: also called huTim3; hu Tim3-ECD
Description: SPR, Ab captured on anti-mouse IgG, 25 C. In general terms: In SPR one partner is held on a chip, and binding of the other changes the refractive index at the surface.

In assay [10] the target is T4, Fc-tagged human Tim3-ECD dimer (human, UniProt Q8TDQ0 22-202).
T4 construct: also called huTim3Fc; huFc fused dimeric human Tim3-ECD
Description: SPR, Ab captured on anti-mouse IgG, 25 C.

Assay [11] deals with T1, human TIM3, full length, on cells. Description: FACS competition, RPMI-8226 cells; competitor Tim3_0016.
Assay [12] has the same target. Description: FACS competition, RPMI-8226 cells; competitor Tim3_0018.
For assay [13] the target is unchanged. Description: FACS competition, RPMI-8226 cells; competitor Tim3_0022.
For assay [14] the target is unchanged. Description: FACS competition, RPMI-8226 cells; competitor Tim3_0026.
Assay [15] shares this target. Description: FACS competition, RPMI-8226 cells; competitor Tim3_0028.
Assay [16] has the same target. Description: FACS competition, RPMI-8226 cells; competitor Tim3_0038.
Assay [17] shares this target. Description: FACS, human CD14+ monocytes, donor1, 10 µg/ml.
For assay [18] the target is unchanged. Description: FACS, human CD14+ monocytes, donor2, 10 µg/ml.
Assay [19] shares this target. Description: FACS, human CD14+ monocytes, donor3, 10 µg/ml.
Assay [20] has the same target. Description: FACS, human CD14+ monocytes, donor1, isotype control.
Assay [21] shares this target. Description: FACS, human CD14+ monocytes, donor2, isotype control.
Assay [22] shares this target. Description: FACS, human CD14+ monocytes, donor3, isotype control.
Assay [23] addresses cynomolgus TIM-3 on isolated cyno CD14+ monocytes (cynomolgus monkey). Description: FACS, cyno CD14+ monocytes, cyno1 (16719M), isotype control.
For assay [24] the target is unchanged. Description: FACS, cyno CD14+ monocytes, cyno2 (17435M), isotype control.
Assay [25] shares this target. Description: FACS, cyno CD14+ monocytes, cyno3 (30085F), isotype control.
The target in assay [26] is T1, human TIM3, full length, on cells. Description: cell-based or functional assay. The source holds these as a separate data set.
Assay [27] concerns the target T2, Tim3-ECD-His-Biotin. Description: ELISA on Tim3-ECD-His-Biotin.
Description: After washing (3×90 μl/well with PBST-buffer) 25 μl/well sheep-anti-mouse-POD (GE NA9310V) was added in 1:9000 dilution and incubated at RT for 1 h while shaking at 400 rpm rotation. After washing (4×90 μl/well with PBST-buffer) 25 TMB substrate (Calbiochem, #CL07) was added and incubated until OD 1.5-2.5. Then the reaction was stopped by addition of 25 μl/well 1N HCL-solution.
Assay [28] has as its target T5, cynomolgus TIM-3 on isolated cyno CD14+ monocytes (cynomolgus monkey, UniProt A0A2K5U3G7 22-294).
T5 construct: whole, on cells; also called cyno monocytes expressing TIM-3
T5 sequence: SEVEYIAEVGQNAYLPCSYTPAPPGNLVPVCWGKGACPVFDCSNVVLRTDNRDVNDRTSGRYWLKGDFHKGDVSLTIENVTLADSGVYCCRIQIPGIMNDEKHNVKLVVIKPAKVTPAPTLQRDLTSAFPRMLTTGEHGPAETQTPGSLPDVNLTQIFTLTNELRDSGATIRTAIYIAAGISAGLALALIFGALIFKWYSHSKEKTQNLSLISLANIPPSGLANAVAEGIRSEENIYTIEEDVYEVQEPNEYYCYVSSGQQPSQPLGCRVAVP
Description: FACS, cyno CD14+ monocytes, cyno1 (16719M).
Description: (§1) CD14+ Monocytes were isolated from cynomolgus monkey anticoagulated peripheral blood (Covance) by density gradient centrifugation using Ficoll-Paque (GE Healthcare) (see General Protocols in the User Manuals or visit www.miltenyibiotec.com/protocols) and subsequent positive selection via NHP CD14 MicroBeads. First the CD14+ cells are magnetically labeled with CD14 MicroBeads. Then the cell suspension is loaded onto a MACS® Column which is placed in the magnetic field of a MACS Separator. The magnetically labeled CD14+ cells are retained in the column. The unlabeled cells run through, this cell fraction is depleted of CD14+ cells. After removal of the column from the magnetic field, the magnetically retained CD14+ cells can be eluted as the positively selected cell fraction. After centrifugation at 200×g for 10 min at room temperature the monocytes were harvested and used directly in binding assay or resuspended in freezing medium (10% DMSO, 90% FCS) at 1.0E+07 cells/ml and stored in liquid nitrogen.
(§2) After washing and centrifugation MFI signals of stained cells were analyzed by BD Biosciences FACSCanto flow cytometer.

In assay [29] the target is T5, cynomolgus TIM-3 on isolated cyno CD14+ …. Description: FACS, cyno CD14+ monocytes, cyno2 (17435M).
Description: as §1, §2
Assay [30] shares this target. Description: FACS, cyno CD14+ monocytes, cyno3 (30085F).
Description: as §1, §2
For assay [31], the target named is T1, human TIM3, full length, on cells. Description: cell ELISA, CHO-K1 with full-length human Tim3.
Description: Then the reaction was stopped by addition of 25 μl/well 1N HCL-solution.
Assay [32] has the same target. Description: cell ELISA, CHO-K1 with full-length human Tim3. The source holds these as a separate data set.
The target in assay [33] is T4, Fc-tagged human Tim3-ECD dimer. Description: SPR, Ab captured on anti-mouse IgG, dimeric Tim3-ECD-Fc.
Description: Therefore, an anti-mouse IgG was immobilized by amine coupling to the surface of a (BIAcore) CMS sensor chip. […] The sensor chip surface was regenerated after each analysis cycle. The equilibrium constant KD was finally gained by fitting the data to a 1:1 Langmuir interaction model.
The samples were injected for 30 seconds with a concentration of 200 μg/ml and bound to the spots 1 and 5 of each flow cell, allowing the measurement of eight samples in parallel. […] The flow rate was set to 30 μl/min for the whole run.
Finally the double referenced data was fitted to a 1:1 Langmuir interaction model with the BIAcore B4000 Evaluation Software.
Assay [34] addresses T3, monomeric human Tim3-ECD. Description: SPR, Ab captured on anti-mouse IgG, monomeric Tim3-ECD; monomer Tim3, not the Fc-tagged dimer.

Where “and” joins values, the source holds several entries; their conditions need not be identical. Equal values may be shown once. Read-outs that look alike come from different tables or passages of the source.

What is called EC50 is the concentration needed to bring the measured effect to its halfway point. What is called Kd is the free concentration of one partner at which half of the binding sites on the other are occupied at equilibrium, for simple one-to-one binding. Higher therefore signals a looser complex. For “anti-human TIM-3 mouse monoclonal antibody clone F38-2E2”, the IFNgamma release in MLR, % of rec hu IL-2 control, 1 µg/ml in assay [1] came to 7%. In addition, the IFNgamma release in MLR, % of rec hu IL-2 control, 10 µg/ml in [1] came to 26%. The molecule further had an IFNgamma release in MLR, % of rec hu IL-2 control, 40 µg/ml in [1] of 36%. The EC50 came out at 0.423 µg/mL in assay [2], 0.0732 µg/mL with Tim3-ECD-His-Biotin [3] and 0.15 µg/mL in assay [8]. Also, the Inflexion point in assay [2] was determined as 210000 ng/mL; in the assay with Tim3-ECD-His-Biotin [3] it was 88.3 ng/mL; in assay [8] it was 224 ng/mL. The figures for the Kd (in assay [4]; with monomeric human Tim3-ECD [9]; in assay [10]) were 168 nM, 13.6 nM and 7.5 nM, respectively. Also, the Specific Binding [MFI] in assay [5] came out at 135 MFI; in assay [6] it was 136 MFI; in assay [7], 124 MFI; in assay [17], 516 MFI; in assay [18], 493 MFI; in assay [19] it was 460 MFI. Further, the Max % Inhibition of Binding is -7% in assay [11]; 6% in assay [12]; 77% in [13]; 2% in assay [14]; 75% in assay [15]; 94% in assay [16].
In the case of Rat-IgG2A isotype control (antibody), the Specific Binding [MFI] in assay [20] turned out to be 71 MFI; in assay [21] it was 68 MFI; in [22] it was 70 MFI; in assay [23] it was 84 MFI; in assay [24], 86 MFI; in assay [25], 91 MFI.

B1: anti-TIM3 antibody Tim3_0016 variant (Tim3_0018) (antibody, V domains shown)
VH: QVTLKESGPGILQPSQTLSLTCSFSGFSLSTSGMSVGWIRQPSGKGLEWLAHIWLNDDVFFNPALKRRLTISKDTSNNQVFLQIASVVTADTATYYCVRANGYLYALDYWGQGISVTVSS
VL: QIVLTQSPAIMSASPGQKVTITCSASSSVNYTQWYQQKLGSSPKLWIYDAFKLAPGVPARFSGSGTGTSYSLTISSMEAEDAASYFCHQWSSYPWTFGGGTKLEIK
notes: Mouse monoclonal from hybridoma; also called TIM3-0016 variant (0018); Tim3_0016 variant 0018-A488
As to B1, the EC50 was 0.0146 µg/mL in [2]; 0.0151 µg/mL in the assay with Tim3-ECD-His-Biotin [3]; 0.56 nM and 0.094 µg/mL in the assay with Tim3-ECD-His-Biotin [27]; 0.52 nM and 0.087 µg/mL in assay [31]; 0.0264 µg/mL in assay [32]. Moreover, the Inflexion point in [2] was 14.6 ng/mL; with Tim3-ECD-His-Biotin [3] it was 15.3 ng/mL; in assay [32], 29.4 ng/mL. Further, the “IFNgamma release in MLR, % of rec hu IL-2 control, 1 µg/ml” value in assay [26] was found to be 12%. Further, the “IFNgamma release in MLR, % of rec hu IL-2 control, 10 µg/ml” value in [26] worked out at 30%. Further, the “IFNgamma release in MLR, % of rec hu IL-2 control, 40 µg/ml” value in [26] was determined as 36%. Further, the Kd in assay [4] amounted to 41.9 nM; with monomeric human Tim3-ECD [9], 3.4 nM; in assay [10] it was 1.11 nM; in assay [33], 1.1 nM; with monomeric human Tim3-ECD [34], 3.4 nM. The “Specific Binding [MFI]” value in assay [28] came to 301 MFI; in [29], 480 MFI; in assay [30], 417 MFI; in [17] it was 2330 MFI; in [18], 1820 MFI; in assay [19], 1940 MFI.

For the origin of these results see patent US20180072804A1 (Hoffmann-La Roche, published 2018).
